This note sets out measurements from article PMC10985028 (Acta Pharmaceutica Sinica. B, 2024).

This assay deals with T1, HA-tagged USP48 (human, UniProt Q86UV5 1-1035).
T1 sequence (looked up): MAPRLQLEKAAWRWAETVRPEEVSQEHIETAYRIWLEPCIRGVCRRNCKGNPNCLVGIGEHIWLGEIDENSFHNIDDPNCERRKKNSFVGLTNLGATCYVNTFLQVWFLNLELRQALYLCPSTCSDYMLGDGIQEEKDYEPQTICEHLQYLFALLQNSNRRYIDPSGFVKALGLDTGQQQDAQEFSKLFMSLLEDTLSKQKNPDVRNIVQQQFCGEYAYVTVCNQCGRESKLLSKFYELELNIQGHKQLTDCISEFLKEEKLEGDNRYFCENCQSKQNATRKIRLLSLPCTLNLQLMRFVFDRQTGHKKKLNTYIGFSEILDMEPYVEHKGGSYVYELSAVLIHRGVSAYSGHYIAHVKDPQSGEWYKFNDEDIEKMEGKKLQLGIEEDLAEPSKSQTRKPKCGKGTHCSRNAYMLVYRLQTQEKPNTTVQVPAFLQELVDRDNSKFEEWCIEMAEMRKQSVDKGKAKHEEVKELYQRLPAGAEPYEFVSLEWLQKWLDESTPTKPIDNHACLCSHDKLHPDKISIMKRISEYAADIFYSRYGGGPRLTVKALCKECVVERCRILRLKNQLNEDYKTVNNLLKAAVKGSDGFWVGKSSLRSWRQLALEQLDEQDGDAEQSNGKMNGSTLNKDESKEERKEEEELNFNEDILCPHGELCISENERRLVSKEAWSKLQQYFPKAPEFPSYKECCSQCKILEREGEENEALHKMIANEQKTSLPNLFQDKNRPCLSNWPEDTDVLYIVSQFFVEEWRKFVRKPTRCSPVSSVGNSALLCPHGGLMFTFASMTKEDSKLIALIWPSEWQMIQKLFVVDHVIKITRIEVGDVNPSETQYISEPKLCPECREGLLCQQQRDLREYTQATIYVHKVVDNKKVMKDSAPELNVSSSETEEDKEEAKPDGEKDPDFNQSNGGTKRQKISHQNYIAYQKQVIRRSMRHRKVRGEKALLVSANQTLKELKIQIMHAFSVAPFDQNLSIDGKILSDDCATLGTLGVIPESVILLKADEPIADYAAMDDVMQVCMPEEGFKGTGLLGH
Description: pull-down.

B1: GST-HMGA2 (natural protein, human, UniProt P52926 1-109, looked up)
chain: MSARGEGAGQPSTSAQGQPAAPAPQKRGRGRPRKQQQEPTGEPSPKRPRGRPKGSKNKSPSKAAQKKAEATGEKRPRGRPRKWPQQVVQKKPAQEETEETSSQESAEED
Turning to B1, the binding result was “binds”.
